The text below walks through data of paper PMC10090351, “DNA accelerates the protease inhibition of a bacterial serpin chloropin” (Frontiers in Molecular Biosciences, 2023).

Assay [1] has as its target thrombin (UniProt P00734).
Assay [2] addresses thrombin (UniProt P00734). The source holds these as a separate data set.
The target in assay [3] is thrombin (UniProt P00734). The source holds these as a separate data set.
Assay [4] concerns the target thrombin (UniProt P00734). The source holds these as a separate data set.
The next assay deals with kallikrein 7 (UniProt P49862 30-253). The experiment in a line: cell-based or functional assay.
In assay [5] the target is thrombin (UniProt P00734). This is another data set of the same source.

kallikrein 7, sequence (P49862 30-253): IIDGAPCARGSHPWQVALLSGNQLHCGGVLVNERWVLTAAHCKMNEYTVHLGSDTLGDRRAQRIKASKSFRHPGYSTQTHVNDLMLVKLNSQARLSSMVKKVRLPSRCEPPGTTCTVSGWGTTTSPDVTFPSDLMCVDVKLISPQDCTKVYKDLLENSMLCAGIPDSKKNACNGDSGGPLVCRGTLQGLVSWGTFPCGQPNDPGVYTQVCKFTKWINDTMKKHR

In the assay with thrombin [1], Chloropin K119D (natural protein) had a k obs of thrombin inhibition, 375 nM chloropin variant, 75 nM thrombin, with 0.8 nM linear plasmid DNA of 0.0055 s⁻¹; a k obs of thrombin inhibition, 375 nM chloropin variant, 75 nM thrombin, without linear plasmid DNA of 0.0038 s⁻¹; a k obs of thrombin inhibition, 1 uM chloropin variant, 0.1 uM thrombin, with 0.1 uM heparin of 0.0555 s⁻¹; a k obs of thrombin inhibition, 1 uM chloropin variant, 0.1 uM thrombin, without heparin of 0.0095 s⁻¹.

In the assay with thrombin [1], Chloropin K126D/K127D (natural protein) yielded a k obs of thrombin inhibition, 375 nM chloropin variant, 75 nM thrombin, with 0.8 nM linear plasmid DNA of 0.0035 s⁻¹; a k obs of thrombin inhibition, 375 nM chloropin variant, 75 nM thrombin, without linear plasmid DNA of 0.0036 s⁻¹; a k obs of thrombin inhibition, 1 uM chloropin variant, 0.1 uM thrombin, with 0.1 uM heparin of 0.0107 s⁻¹; a k obs of thrombin inhibition, 1 uM chloropin variant, 0.1 uM thrombin, without heparin of 0.0086 s⁻¹.

In the assay with thrombin [1], Chloropin K268D/K269D (natural protein) showed a k obs of thrombin inhibition, 375 nM chloropin variant, 75 nM thrombin, with 0.8 nM linear plasmid DNA of 0.0041 s⁻¹; a k obs of thrombin inhibition, 375 nM chloropin variant, 75 nM thrombin, without linear plasmid DNA of 0.0035 s⁻¹; a k obs of thrombin inhibition, 1 uM chloropin variant, 0.1 uM thrombin, with 0.1 uM heparin of 0.0096 s⁻¹; a k obs of thrombin inhibition, 1 uM chloropin variant, 0.1 uM thrombin, without heparin of 0.0083 s⁻¹.

B1: chloropin (natural protein, Chlorobium limicola, UniProt B3ECZ8 54-420, looked up)
chain: ELAVDLYRNLAVTGKNLFFSPSSIETALSMTMSGARNRTERQMADVMHVGPDAMERHHAGLASFEKQLESIQKKGKVTIASSNSIWPQKNYPLAPSWLAQLKRYYGTSVTPVDYIHETEKARIAINRRVEKDTKNRIRELLKPGILDPLTRLALVNAVYFKGDWEHPFNENNTVASPFYIRQGTTGKAPLMRQSASFGYGDHDGVQVLELPYAGKKLSMIVVLPKERFGLEALEKTLTPKQFALWTANLSERKIEALLPKFRTTSAFRLDETLRHMGMTDAFDRNLADFSGMVSNSDKLYIGAVVHKAFVDVGEKGTEAAAATAVVMQLRSAMPMPVPVFKADHPFLFAIRENSTGRILFMGRISDP
On to B1, for which, in the assay with thrombin [2], the fold increase of the rate of thrombin inhibition with linear DNA (series of concentrations; maximum around 2.4-4.8 nM) was 142 fold; the fold increase of the rate of thrombin inhibition with supercoiled plasmid DNA (0.05-25.6 nM, bell-shaped; 1.5-fold at 0.1 nM, maximum between 1.6 and 3.2 nM) was determined as 74 fold. In the assay with thrombin [1], this molecule gave a k obs of thrombin inhibition, 375 nM chloropin, 75 nM thrombin, with 0.8 nM linear plasmid DNA of 0.0142 s⁻¹; a k obs of thrombin inhibition, 375 nM chloropin, 75 nM thrombin, with supercoiled plasmid DNA of 0.0193 s⁻¹; a k obs of thrombin inhibition, 375 nM chloropin, 75 nM thrombin, without linear plasmid DNA of 0.0035 s⁻¹; a k obs of thrombin inhibition, 375 nM chloropin, 75 nM thrombin, without supercoiled plasmid DNA of 0.0035 s⁻¹. Besides, in the assay with thrombin [1], the k obs of thrombin inhibition, 1 uM chloropin, 0.1 uM thrombin, with 0.1 uM heparin was found to be 0.0667 s⁻¹ and the k obs of thrombin inhibition, 1 uM chloropin, 0.1 uM thrombin, without heparin was 0.0083 s⁻¹. Further, in the assay with thrombin [3], the k 2, derived second-order inhibition rate constant was determined as 25000 M⁻¹ s⁻¹; the k app, apparent second-order rate constant of thrombin inhibition (residual protease activity) turned out to be 14700 M⁻¹ s⁻¹; the stoichiometry of inhibition (SI), residual thrombin activity after 12 h with 0-2 uM chloropin is 1.68. The second order rate constant of thrombin inhibition with DNA in the assay with thrombin [4] worked out at 3.6e+06 M⁻¹ s⁻¹. The “stoichiometry of inhibition (SI), residual KLK7 activity after 12 h with 0-2 uM chloropin” value with kallikrein 7 stood at 1.55. Moreover, the fold increase of k obs of thrombin inhibition with low molecular weight heparin (series of concentrations, bell-shaped; 5.9-fold at 0.1 uM, maximum at 0.5 uM) with thrombin [5] is 17.2 fold.
